Results taken from patent US20150361176A1 (GlaxoSmithKline, published 2015).
Substitutions are numbered along the chain they refer to. Names and notes keep the numbering of the source.

Assays:
[1] = target: T1, human TGF-βRII on cells (SBE-bla HEK 293T cells; A549 cells) (human, UniProt P37173 23-567); experiment: cell-based or functional assay
[2] = target: T2, mouse TGF-βRII on MC3T3-E1 cells (mouse osteoblasts) (mouse, UniProt Q62312 24-567); experiment: cell-based or functional assay
T2 sequence (looked up): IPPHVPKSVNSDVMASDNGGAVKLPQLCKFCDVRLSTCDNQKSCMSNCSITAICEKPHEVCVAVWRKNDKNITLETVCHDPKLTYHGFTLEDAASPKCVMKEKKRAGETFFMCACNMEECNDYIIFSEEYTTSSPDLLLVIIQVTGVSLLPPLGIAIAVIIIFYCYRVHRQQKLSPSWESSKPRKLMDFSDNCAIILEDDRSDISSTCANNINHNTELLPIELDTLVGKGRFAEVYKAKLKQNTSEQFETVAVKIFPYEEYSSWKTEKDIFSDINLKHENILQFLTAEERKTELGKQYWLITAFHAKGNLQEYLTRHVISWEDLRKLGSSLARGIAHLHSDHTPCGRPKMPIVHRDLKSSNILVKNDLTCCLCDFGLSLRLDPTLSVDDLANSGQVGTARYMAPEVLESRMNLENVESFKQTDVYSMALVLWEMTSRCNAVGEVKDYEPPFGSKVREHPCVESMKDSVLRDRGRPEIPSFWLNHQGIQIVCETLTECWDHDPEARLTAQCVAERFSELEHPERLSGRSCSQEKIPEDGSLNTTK

[3] = target: T1, human TGF-βRII on cells (SBE-bla HEK …); experiment: cell-based or functional assay; remark: listed apart in the source
[4] = target: T3, recombinant human TGF-β RII/Fc chimera protein (human, UniProt P37173 24-159); experiment: SPR Biacore, purified dAb; antigen taken as human TGF-β RII/Fc
T3 construct: range 24-159; Made in HEK-F cells; Biotinylated where it was put on SA chips, otherwise captured by anti-human IgG; also called human TGFbRII/Fc; hRII-Fc; not shown: Fc region of human IgG1

[5] = target: T1, human TGF-βRII on cells (SBE-bla HEK …); experiment: cell-based or functional assay; remark: listed apart in the source
[6] = target: T3, recombinant human TGF-β RII/Fc chimera …; experiment: SPR Biacore A100, antigen-Fc captured by anti-human IgG, purified dAb, 1:1 model
Protocol: BIACORE™ A100 analysis was carried out using a capture surface on a CM5 chip. Anti-human IgG was used as the capturing agent and coupled to a CM5 biosensor chip by primary amine coupling. The Antigen molecule fused to the human Fc was captured on this immobilised surface to a level from 200 to 300 resonance units and supernatants or purified domain antibodies were passed over this captured surface. An injection of media or buffer over the captured antigen surface was used for double referencing. On each flow cell, a protein A spot allowed to confirm the presence of domain antibody on each sample injected. […] All runs were carried out at 25° C. using HBS-EP buffer as running buffer. Data were generated using the BIACORE™ A100 and analyzed using its inherent software. Kinetics from purified samples were fitted to the 1:1 binding model while supernatant off-rates were analyzed using the 1:1 dissociation model and/or using the binding level and the stability level of each sample in comparison to the parent molecule.
A selection of mutants with improved off-rate were purified and subjected to full BIACORE™ A100 kinetic analysis to determine their affinity (Table 10). The thermal stability of the mutants was also determined by generation of melting profiles in the presence of SYPRO™ Orange (Invitrogen). Briefly, the purified dAbs were diluted to 50 and 100 ug/ml in a 1:500 dilution of SYPRO™ Orange in PBS, and subjected to a 30-90° C. melt curve in a Mini OPTICON™ PCR machine (BioRad). The Tm of the major positive transition was determined at each concentration and used to calculate an estimated Tm value at 1 mg/ml as an indication of the melting temperature for comparison (Table 10).

[7] = target: T3, recombinant human TGF-β RII/Fc chimera …; experiment: SPR Biacore, human TGFbRII-FC, 1:1 model
[8] = target: T1, human TGF-βRII on cells (SBE-bla HEK …); experiment: cell-based or functional assay; remark: listed apart in the source
[9] = target: T2, mouse TGF-βRII on MC3T3-E1 cells (mouse …); experiment: cell-based or functional assay; remark: listed apart in the source
cynomolgus TGF-β RII/Fc = target: T4, cynomolgus TGF-β RII/Fc (cynomolgus); experiment: SPR Biacore
T4 construct: extracellular domain; also called Cyno TGFBRII; Cyno TGFbRII

[10] = target: T3, recombinant human TGF-β RII/Fc chimera …; experiment: SPR Biacore

T1 sequence (P37173 23-567): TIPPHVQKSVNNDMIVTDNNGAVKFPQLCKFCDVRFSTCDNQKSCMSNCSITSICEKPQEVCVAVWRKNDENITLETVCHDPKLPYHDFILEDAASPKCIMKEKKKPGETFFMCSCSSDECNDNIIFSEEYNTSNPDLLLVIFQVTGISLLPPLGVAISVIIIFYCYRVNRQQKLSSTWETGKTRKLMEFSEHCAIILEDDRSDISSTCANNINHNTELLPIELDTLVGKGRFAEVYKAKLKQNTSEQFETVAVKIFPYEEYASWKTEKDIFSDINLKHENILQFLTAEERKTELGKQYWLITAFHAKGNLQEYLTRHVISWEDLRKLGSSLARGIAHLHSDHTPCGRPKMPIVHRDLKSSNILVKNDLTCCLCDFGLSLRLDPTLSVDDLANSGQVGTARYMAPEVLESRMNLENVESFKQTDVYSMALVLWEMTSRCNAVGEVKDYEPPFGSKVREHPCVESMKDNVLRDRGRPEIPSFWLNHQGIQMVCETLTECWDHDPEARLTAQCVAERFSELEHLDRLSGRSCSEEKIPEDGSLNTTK
T3 sequence (P37173 24-159 limits assumed, change not shown): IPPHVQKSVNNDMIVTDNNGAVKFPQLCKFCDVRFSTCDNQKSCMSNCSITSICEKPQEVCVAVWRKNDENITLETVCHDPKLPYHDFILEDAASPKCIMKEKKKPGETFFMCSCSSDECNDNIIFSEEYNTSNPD

B1: DOM23m-4 (VHH, not shown: small tags and cut ends)
VHH: EVQLLESGGGLVQPGGSLRLSCAASGFTFTTYGMGWVRQAPGKGLEWVSWIEKTGNKTYYADSVKGRFTISRDNSKNTLYLQMNSLRAEDTAVYYCAKAGRHIKVRSRDFDYWGQGTLVTVSS
max % inhibition, Average (Human IL-11 release, h1) [1]: 70.7% | max % inhibition, Average (SBE-bla HEK CELLSENSOR assay, h2) [1]: 69% | max % inhibition, Average (Mouse 3T3 cell assay, method m1) [2]: 73.3%

B2: DOM23m-72 (VHH, not shown: small tags and cut ends)
VHH: EVQLLESGGGLVQPGGSLRLSCAASGFTFMDYDMSWVRQAPGKGLEWVSMIREDGGKTYYADSVKGRFTISRDNSKNTLYLQMNSLRAEDTAVYYCAKARVPYRRGHRDNFDYWGQGTLVTVSS
max % inhibition, Average (Human IL-11 release, h1) [1]: 1.7% | max % inhibition, Average (Mouse 3T3 cell assay, method m1) [2]: 17.5%

B3: DOM23m-81 (VHH, not shown: small tags and cut ends)
VHH: EVQLLESGGGLVQPGGSLRLSCAASGFTFEPVIMGWVRQAPGKGLEWVSAIEARGGGTYYADSVKGRFTISRDNSKNTLYLQMNSLRAEDTAVYYCAKPGRHLSQDFDYWGQGTLVTVSS
max % inhibition, Average (Mouse 3T3 cell assay, method m2) [2]: 30.3%

B4: DOM23m-99 (VHH, not shown: small tags and cut ends)
VHH: EVQLLESGGGLVQPGGSLRLSCAASGFTFDRYRMMWVRQAPGKGLEWVSTIDPAGMLTYYADSVKGRFTISRDNSKNTLYLQMNSLRAEDTAVYYCAKRLASRSHFDYWGQGTLVTVSS
max % inhibition, Average (Mouse 3T3 cell assay, method m2) [2]: 46.5%

B5: DOM23m-101 (VHH, not shown: small tags and cut ends)
VHH: EVQLLESGGGLVQPGGSLRLSCAASGFTFSEYDMAWVRQAPGKGLEWVSRIRSDGVRTYYADSVKGRFTISRDNSKNTLYLQMNSLRAEDTAVYYCAKDRAKNGWFDYWGQGTLVTVSS
max % inhibition, Average (SBE-bla HEK CELLSENSOR assay, h2) [1]: 59.8% | max % inhibition, Average (Mouse 3T3 cell assay, method m2) [2]: 48%

B6: DOM23h-352 (VHH, not shown: small tags and cut ends)
VHH: EVQLLESGGGLVQPGGSLRLSCAASGFTFDKYKMAWVRQAPGKGLEWVSLIFPNGVPTYYANSVKGRFTISRDNSKNTLYLQMNSLRAEDTAVYYCAKYSGQGRDFDYWGQGTLVTVSS
max % inhibition, Average (SBE-bla HEK CELLSENSOR assay, h2) [1]: 46.7% | max % inhibition, Average (Mouse 3T3 cell assay, method m2) [2]: 48%

B7: DOM23h-843 (VHH)
VHH: EVQLLESGGGLVQPGGSLRLSCAASGFTFDQDRMWWVRQAPGKGLEWVSAIESGGHRTYYADSVKGRFTISRDNSKNTLYLQMNSLRAEDTAVYYCAKQNESGRSGFDYWGQGTLVTVSS
notes: human VH domain antibody (dAb), naive lead; parent of DOM23h-843-13; not shown: C-terminal FLAG tag from vector pDOM10
Mean IC50 (nM), SBE-bla HEK 293T Cell Sensor assay (h2) [3]: 1950 nM | Kd [4]: 378 nM | koff [4]: 0.343 s⁻¹ | kon [4]: 905000 M⁻¹ s⁻¹ | IC50 nM, Mean (SBE-bla HEK 293T cell sensor assay, h2) [5]: > 9010 nM

B8: DOM23h-855 (VHH)
VHH: EVQLLESGGGLVQPGGSLRLSCAASGFTFENTSMGWVRQAPGKGLEWVSRIDPKGSHTYYADSVKGRFTISRDNSKNTLYLQMNSLRAEDTAVYYCAKQRELGKSHFDYWGQGTLVTVSS
notes: human VH domain antibody (dAb), naive lead; parent of DOM23h-855-21; not shown: C-terminal FLAG tag from vector pDOM10
Mean IC50 (nM), SBE-bla HEK 293T Cell Sensor assay (h2) [3]: > 25000 nM | Kd [4]: 941 nM | koff [4]: 0.315 s⁻¹ | kon [4]: 335000 M⁻¹ s⁻¹ | IC50 nM, Mean (SBE-bla HEK 293T cell sensor assay, h2) [5]: > 4470 nM

B9: DOM23m-29 (VHH, not shown: small tags and cut ends)
VHH: EVQLLESGGGLVQPGGSLRLSCAASGFTFKRYSMGWVRQAPGKGLEWVSVINDLGSLTYYADSVKGRFTISRDNSKNTLYLQMNSLRAEDTAVYYCAKGNISMVRPGSWFDYWGQGTLVTVSS
max % inhibition, Average (Mouse 3T3 cell assay, method m1) [2]: 54.2%

B10: DOM23h-439 (VHH)
VHH: EVQLLESGGGLVQPGGSLRLSCAASGFTFGTEQMWWVRQAPGKGLEWVSRIDSPGGRTYYADSVKGRFTISRDNSKNTLYLQMNSLRAEDTAVYYCAKRHAAGVSGTYFDYWGQGTLVTVSS
Mean IC50 (nM), SBE-bla HEK 293T Cell Sensor assay (h2) [3]: 3570 nM | Kd [4]: 24.2 nM | koff [4]: 0.0502 s⁻¹ | kon [4]: 2.08e+06 M⁻¹ s⁻¹

B11: DOM23h-271 mutant 1H11 (L at 61, W at 64) (VHH, name in Kabat numbering)
VHH: EVQLLESGGGLVQPGGSLRLSCAASGFTFTEYRMWWVRQAPGKGLEWVSAIEPIGNRTYYALSVWGRFTISRDNSKNTLYLQMNSLRAEDTAVYYCAKQIPGRKWTANSRFDYWGQGTLVTVSS
notes: human VH dAb; expressed from pDOM13; also called LW
Kd [6]: 4.17 nM

B12: DOM23h-271 mutant 2C12 (D61N, K64R) (VHH, name in Kabat numbering)
VHH: B11 VHH with L62N, W65R
notes: human VH dAb; expressed from pDOM13; also called NR
Kd [6]: 3.34 nM

B13: DOM23h-271 mutant 3D4 (K at 61, T at 64) (VHH, name in Kabat numbering)
VHH: B11 VHH with L62K, W65T
notes: human VH dAb; expressed from pDOM13; also called KT
Kd [6]: 4.26 nM

B14: DOM23h-271 mutant 3D9 (K at 61, G at 64) (VHH, name in Kabat numbering)
VHH: B11 VHH with L62K, W65G
notes: human VH dAb; expressed from pDOM13; also called KG
Kd [6]: 4.34 nM

B15: DOM23h-271 mutant 3F11 (R at 61, E at 64) (VHH, name in Kabat numbering)
VHH: B11 VHH with L62R, W65E
notes: human VH dAb; expressed from pDOM13; also called RE
Kd [6]: 3.27 nM

B16: DOM23h-271-21 (VHH)
VHH: B11 VHH with L62D, W65K, I100M, N108K, S109F, F111W, T121I
notes: human VH dAb from DNA display; expressed from pDOM13
Kd [7]: 0.147 nM | koff [7]: 0.000472 s⁻¹ | kon [7]: 3.21e+06 M⁻¹ s⁻¹

B17: DOM23h-271-22 (VHH)
VHH: B11 VHH with L62D, W65K, I100M, R103Q, T106M, N108K
notes: as for B16
Human Cell sensor IC50 [8]: 39 nM | Mouse 3T3 Luciferase assay IC50 [9]: > 17800 nM | Kd [7]: 0.286 nM | koff [7]: 0.000919 s⁻¹ | kon [7]: 3.22e+06 M⁻¹ s⁻¹ | Kd (cynomolgus TGF-β RII/Fc): 0.225 nM | Kd [10]: 0.202 nM

B18: DOM23h-271-27 (VHH)
VHH: B11 VHH with N56Q, R57K, L62D, W65K, T121I
notes: as for B16
Kd [7]: 0.578 nM | koff [7]: 0.00126 s⁻¹ | kon [7]: 2.17e+06 M⁻¹ s⁻¹

B19: DOM23m-32 (VHH, not shown: small tags and cut ends)
VHH: EVQLLESGGGLVQPGGSLRLSCAASGFTFFEYPMGWVRQAPGKGLEWVSVISGDGQRTYYADSVKGRFTISRDNSKNTLYLQMNSLRAEDTAVYYCAKSHTGTVRHLETFDYWGQGTLVTVSS
max % inhibition, Average (Mouse 3T3 cell assay, method m1) [2]: 39.7%

B20: DOM23m-62 (VHH, not shown: small tags and cut ends)
VHH: EVQLLESGGGLVQPGGSLRLSCAASGFTFGQESMYWVRQAPGKGLEWVSAISGSGGSTYYADSVKGRFTISRDNSKNTLYLQMNSLRAEDTAVYYCAKSGTRIKQGFDYWGQGTLVTVSS
max % inhibition, Average (Human IL-11 release, h1) [1]: 79% | max % inhibition, Average (Mouse 3T3 cell assay, method m1) [2]: 78.6%

B21: DOM23m-71 (VHH, not shown: small tags and cut ends)
VHH: EVQLLESGGGLVQPGGSLRLSCAASGFTFMDYRMYWVRQAPGKGLEWVSGIDPTGLRTYYADSVKGRFTISRDNSKNTLYLQMNSLRAEDTAVYYCAKIKWGEMGSYKTFDYWGQGTLVTVSS
max % inhibition, Average (Human IL-11 release, h1) [1]: -2% | max % inhibition, Average (Mouse 3T3 cell assay, method m1) [2]: 44.9%
